Legend:
[1] = test system: rat model of complete heart block; assay: Effect of TGF-beta small molecule inhibitor on ventricular pacing with TBX18 mRNA; format: in vivo; settings: A83-01 released by osmotic pump
Protocol: On Day 0, an osmotic pump releasing A83-01 (a TGF-beta inhibitor, Sigma Aldrich) was implanted into the rats. On Day 1, TBX18 mRNA was injected into the rats and a telemetry device was also implanted. Two doses of TBX18 mRNA were given to the rats: (i) a low dose of 100 μg TBX18 mRNA with 68.4 μl RNA-free phosphate-buffered saline (PBS), or (ii) a high dose of 300 μg TBX18 mRNA with 205 μl RNA-free PBS. A continuous telemetry recording of each rat's electrocardiogram (ECG) was made for 21 days after implantation of the telemetry device. In addition, 3-lead surface ECGs were performed on anesthetized animals on Days 7, 14, and 21 along with an isoproterenol challenge. The heart was harvested from each animal on Day 21.
The inventors then determined the effects of including a TGF-beta small molecule inhibitor on ventricular pacing with TBX18 mRNA (FIG. 16).

[2] = test system: Human iPS cell-derived cardiomyocytes; assay: MEA functional testing of mRNA-expressed opsins with light excitation; format: cell-based
Protocol: Human iPS cell-derived cardiomyocytes were seeded into 48 well Axion MEA plates and cultured for 2 weeks until completely synchronized electrical activity (beat rate) was observed. Cells were transfected with ChR2 mRNA, JAWs mRNA, delivery vehicle only, or a mixture of both mRNAs using a modified PEI derivative (Lypocalyx Gmbh). Transfected cells were assayed using the Axion Maestro MEA and Lumos light excitation device at 6 hours and 24 hours post transfection. Assays were comprised of electrical readout (16 electrodes per well) with either no stimulus, blue light stimulus (drives firing in ChR2-transfected cells), orange light stimulus (inhibits firing in JAWs-transfected cells), or blue light impulse stimulus with a period of constant orange light.
As a preliminary step, the inventors determined the optimal amount of delivery vehicle to transfect cells for adequate function of the expressed mRNA, defined as complete control of beat rate with ChR2 and conversely complete inhibition of firing with JAWs. […] Delivery vehicle alone had no effect on native cell beat rates, thus it is likely that higher amounts of protein can be generated if opsin function is required more rapidly. […] Using 0.1 ul of delivery vehicle, all three wells (100%) were paced via light (FIG. 3C).
The inventors next tested expression and function of ChR2 and JAWS (inhibitory opsin) in iPS-derived cardiomyocytes. Here, 500 ng each of ChR2 and JAWS mRNA were delivered to iPS-derived cardiomyocytes in an MEA plate (FIG. 9). The next day, cells were paced using pulsed blue light stimulation (arrows). At the same time, orange light was used for several seconds (bars) to prevent cardiomyocytes from beating.

[3] = test system: neonatal rat ventricular myocytes (NRVMs); assay: MEA light pacing of NRVMs transfected with ChR2 or CatCH mRNA; format: cell-based
Excerpt: For proper characterization of cells transfected with opsins, in addition to protein expression, another metric, function, can assist in properly optimizing the use of mRNA as an expression vector. Functional characterization can be performed with the use of a multi-electrode array (MEA). An MEA device uses electrodes to measure the field potential of nearby cells. Changes in field potential in cardiomyocytes can be detected in an amplitude and location-specific manner depending on the pickup electrode. The MEA device used, a Maestro from Axion Biosystems, allows the simultaneous measurement and light excitation of 16 electrodes per well in a 48 well plate. By employing primary ventricular cardiomyocytes from neonatal rats (NRVMs), functional expression of an opsin such as ChR2 can be measured as a synchronization event between electrical activity and pulsed light excitation from the LEDs embedded in the Axion Lumos device.
Pacing cardiac myocytes allows the screening of new drugs in a controlled environment, where the effect on beat frequency and waveforms can be measured against predicted values in the presence/absence of drugs. The inventors transfected neonatal rat ventricular myocytes (NRVMs) with mRNA encoding ChR2 and a modified ChR2 with a single amino acid substitution, CatCH. NRVMs were plated on MEA plates and the next day were transfected with ChR2 or CatCH mRNA at varying concentrations in triplicate wells using Viromer Red (Lipocalyx). […] Furthermore, when interrogated with excitation rates of 1 hz, 2 hz, and 3 hz, CatCH transfected cells were able to be driven at higher beat rates (3 hz) up to 72 hours post-transfection (FIG. 8) compared to ChR2 transfected cells. As the amount of mRNA and structure of the opsin are very similar, this difference can be inferred as due to enhanced opsin sensitivity—fewer opsins per cell were necessary to drive cardiac action potentials. When opsin expression was low, such as at timepoints several days following transfection, cardiac cells could only be driven at the slower rate of 1 hz successfully.

[4] = test system: neonatal rat ventricular cardiomyocytes (NRVMs); assay: CatCh-V5 expression time course by imaging and flow cytometry; format: cell-based; settings: 24 hour pulse of mRNA; Viromer Red
Protocol: (§1) As a first step, the inventors expressed CatCh in neonatal rat ventricular cardiomyocytes (NRVMs) using IVT mRNA. Transfection conditions were varied using GFP mRNA. After identifying the optimal vehicle for transfection (Viromer Red), the expression of the protein of interest, CatCh-V5, was assessed after a 24 hour pulse of mRNA. […] CatCh-V5 localized to the membrane of transfected cells roughly 12 hours after transfection. […] The inventors next evaluated the function of transfected NRVMs. CatCh is an opsin, which induces a membrane depolarization in response to blue light stimulation. CatCh transfected NRVMs were exposed to a range of optical intensities (0 to 100% power) using 475 nm blue LED light. At each light intensity, the inventors scanned a range of stimulation durations (1 to 15 milliseconds). A train of monophasic square waves at a frequency of 2 Hz for a total of 30 seconds was utilized. The inventors compared the capture rate of CatCh versus Channelrhodopsin 2 (ChR2), a commonly used opsin. […] Cells were then subjected to blue light stimulation and analyzed for capture at different transfection amounts and timepoints.

[5] = test system: neonatal rat ventricular cardiomyocytes (NRVMs); assay: Capture of CatCh transfected NRVMs by 475 nm blue light stimulation; format: cell-based
Protocol: as §1

Molecule: Cc1cccc(-c2nn(C(=S)Nc3ccccc3)cc2-c2ccnc3ccccc23)n1 [A83-01, reference compound]
- effect on ventricular pacing / block [1]: reversed the block

B1: JAWS mRNA: mRNA encoding the inhibitory opsin JAWS, activated by constant orange or red light (nucleic acid)
chain: GGGAAATAAGAGAGAAAAGAAGAGTAAGAAGAAATATAAGAGCCACCATGACCGCCGTGTCTACCACAGCCACAACAGTGCTGCAGGCCACACAGAGCGACGTGCTGCAAGAGATCCAGAGCAACTTCCTGCTGAACAGCAGCATCTGGGTCAACATTGCCCTGGCCGGCGTTGTGATCCTGCTGTTTGTGGCCATGGGCCGCGATCTGGAAAGCCCTAGAGCCAAGCTGATCTGGGTCGCCACAATGCTGGTGCCCCTGGTGTCTATCAGCAGCTATGCCGGACTGGCCTCTGGCCTGACAGTGGGCTTTCTGCAAATGCCTCCTGGACACGCCCTGGCTGGACAAGAAGTTCTGTCTCCCTGGGGCAGATACCTGACCTGGACCTTCAGCACCCCTATGATTCTGCTGGCCCTGGGACTGCTGGCCGATACAGATATCGCCAGCCTGTTCACCGCCATCACCATGGACATCGGGATGTGTGTGACAGGCCTGGCCGCTGCTCTGATCACAAGCAGCCATCTGCTGAGATGGGTGTTCTACGGAATCAGCTGCGCCTTCTTCGTGGCCGTGCTGTATGTGCTGCTGGTGCAGTGGCCTGCCGATGCTGAAGCTGCCGGAACCTCTGAGATCTTCGGCACCCTGAGAATCCTGACCGTGGTGCTGTGGCTGGGCTACCCTATTCTGTTTGCCCTGGGCTCTGAAGGCGTGGCACTGCTGTCTGTGGGAGTGACAAGCTGGGGCTATAGCGGCCTGGACATCCTGGCCAAATACGTGTTCGCCTTTCTGCTCCTCAGATGGGTCGCCGCCAATGAGGGAACAGTGTCTGGCTCTGGCATGGGCATTGGATCTGGCGGAGCTGCCCCTGCTGATGATCCAGCTGCTGCCACCTATCCTTACGACGTGCCCGACTACGCCTGATGAGCTGCCTTCTGCGGGGCTTGCCTTCTGGCCATGCCCTTCTTCTCTCCCTTGCACCTGTACCTCTTGGTCTTTGAATAAAGCCTGAGTAGGAAGGCTCGCTTTCTTGCTGTCCAATTTCTATTAAAGGTTCCTTTGTTCCCTAAGTCCAACTACTAAACTGGGGGATATTATGAAGGGCCTTGAGCATCTGGATTCTGCCTAATAAAAAACATTTATTTTCATTGCGC
- opsin function in dual transfection ([2]; 500 ng each of ChR2 and JAWS mRNA, next day, pulsed blue light and orange light): function of both opsins
- inhibition of beating under continuously applied orange light ([2]; period of 10 seconds orange light): inhibited beating completely
- time post-transfection at which complete capture (synchronization or complete inhibition) was observed ([2]; second highest and highest amounts of delivery vehicle): 24 h

B2: CatCH: mRNA encoding a modified ChR2 with a single amino acid substitution, CatCH (nucleic acid)
DNA: GGGAAATAAGAGAGAAAAGAAGAGTAAGAAGAAATATAAGAGCCACCATGGATTACGGCGGAGCCCTGTCTGCCGTGGGCAGAGAACTGCTGTTCGTGACCAACCCCGTGGTCGTGAACGGCAGCGTGCTGGTGCCTGAGGACCAGTGTTACTGCGCCGGCTGGATCGAGAGCAGAGGCACAAACGGCGCCCAGACCGCCTCTAACGTGCTGCAGTGGCTGGCCGCTGGCTTCAGCATCCTGCTGCTGATGTTCTACGCCTACCAGACCTGGAAGTCTACCTGCGGCTGGGAAGAGATCTACGTGTGCGCCATCGAGATGGTCAAAGTGATCCTGGAATTCTTCTTCGAATTCAAAAACCCCTCCATGCTGTACCTGGCCACCGGCCACAGAGTGCAGTGGCTGAGATACGCCGAGTGGCTGCTGACCTGCCCCGTGATCTGCATCCACCTGAGCAACCTGACCGGCCTGTCCAACGACTACAGCAGACGGACCATGGGCCTGCTGGTGTCCGACATCGGCACAATCGTGTGGGGCGCCACAAGCGCCATGGCCACAGGCTACGTGAAAGTGATCTTCTTCTGCCTGGGCCTGTGCTACGGCGCCAACACATTCTTCCACGCCGCCAAGGCCTACATCGAGGGCTACCACACAGTGCCCAAGGGCAGATGCAGACAGGTCGTGACAGGCATGGCCTGGCTGTTCTTCGTGTCCTGGGGCATGTTCCCCATCCTGTTCATCCTGGGCCCTGAGGGCTTCGGCGTGCTGTCTGTGTACGGCTCTACCGTGGGCCACACCATCATCGACCTGATGAGCAAGAACTGTTGGGGACTGCTGGGCCACTACCTGAGAGTGCTGATCCACGAGCACATCCTGATTCACGGCGACATCAGAAAGACCACCAAGCTGAACATCGGCGGCACCGAGATCGAGGTGGAAACCCTGGTGGAAGATGAGGCCGAGGCTGGCGCTGTGCCAGCCGCTGCTACAGGTAAGCCTATCCCTAACCCTCTCCTCGGTCTCGATTCTACGTGATAAGCTGCCTTCTGCGGGGCTTGCCTTCTGGCCATGCCCTTCTTCTCTCCCTTGCACCTGTACCTCTTGGTCTTTGAATAAAGCCTGAGTAGGAAGGC
modifications: mRNA transcribed from DNA
- light sensitivity compared with ChR2 based on MEA measurements ([3]; 125 ng of CatCH versus 1000 ng of ChR2): much higher sensitivity than ChR2
- maximum beat rate comparison with ChR2 ([3]; 1 hz, 2 hz, 3 hz LED pulsing, time course): able to sustain higher frequencies
- LED light intensity to which the opsin responds ([3]; 24 hours post transfection): 5%
- light required for electrical response relative to ChR2 ([3]; 24 hours post-transfection): 15 times
- time post-transfection up to which cells could be driven at 3 hz ([3]; LED pulsing, maximum intensity excitation light): up to 72 hours
- beat rate at which cells were able to be driven ([3]; excitation rates of 1 hz, 2 hz, and 3 hz, up to 72 hours post-transfection): 3 hz
- time after transfection to membrane localization [4]: roughly 12 hours
- time by which expression dropped off significantly [4]: ≤ 5 days
- time of peak expression [4]: 24 h
- optimal RNA dose to achieve reliable pacing over time ([5]; 0.1, 1 and 10 ng/1000 cells tested): 1 ng/1,000 cells
- capture rate versus Channelrhodopsin 2 (ChR2) ([5]; 475 nm blue LED, 0 to 100% power, 1 to 15 milliseconds, 2 Hz for 30 seconds): superior sensitivity
- days post-transfection with highest capture rates at lowest stimulation thresholds ([5]; blue light stimulation): 1 to 3 days

Reference: US20210000879A1, “METHODS AND COMPOSITIONS FOR MRNA-BASED MODULATION AND DETECTION OF CELL PHENOTYPES” (Georgia Tech Research Corporation, priority 2018, published 2021)
